Experimental data: patent US20230414779A1, “ANTIGEN-BINDING FRAGMENTS AND USES THEREOF” (NewSouth Innovations Pty Limited, priority 2020, published 2023)
“Also recorded” adds a separate entry of the source. Read-outs that look alike come from different tables or passages of the source. No end group written: not given here.

T1: FcγRIIA (Homo sapiens, UniProt P12318)
T1 sequence (P12318 34-317): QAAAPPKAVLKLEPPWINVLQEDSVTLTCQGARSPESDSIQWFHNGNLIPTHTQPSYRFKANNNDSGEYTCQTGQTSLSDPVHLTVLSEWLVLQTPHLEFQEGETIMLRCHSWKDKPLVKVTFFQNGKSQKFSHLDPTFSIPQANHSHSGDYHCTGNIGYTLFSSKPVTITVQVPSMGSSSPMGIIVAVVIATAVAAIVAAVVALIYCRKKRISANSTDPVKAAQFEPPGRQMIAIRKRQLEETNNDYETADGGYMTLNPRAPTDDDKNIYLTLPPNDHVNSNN

T2: human Fc gamma receptor IIA (FcγRIIA) (human, UniProt P12318 34-317)
T2 construct: whole, on cells; also called FcgRIIA; CD32a
T2 sequence (looked up): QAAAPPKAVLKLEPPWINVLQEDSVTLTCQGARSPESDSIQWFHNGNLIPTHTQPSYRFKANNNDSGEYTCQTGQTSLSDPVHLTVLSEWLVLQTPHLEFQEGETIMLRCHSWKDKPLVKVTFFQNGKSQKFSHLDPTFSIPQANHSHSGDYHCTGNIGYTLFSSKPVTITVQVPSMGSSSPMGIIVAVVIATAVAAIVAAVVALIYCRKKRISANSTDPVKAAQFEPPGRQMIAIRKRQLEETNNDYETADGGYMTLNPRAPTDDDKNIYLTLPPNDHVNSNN


Key:
FcγRIIA = molecular target: T1, FcγRIIA; test: Binding of the linker peptide alone; details: source not stated
human platelets [1] = format: cell-based; details: for Inhibition of platelet aggregation of HIT-antibody: concentration giving inhibition; for inhibition of HIT serum induced aggregation: 40 nM, human platelets, HIT serum and heparin; for EC50: HRU5 relative to the parental scFv, read-out: activity (effective concentration)
Protocol: Platelet aggregation assays were performed by mixing samples at 1200 rpm, 37° C. for up to 25 min in an aggregometer (Chrono-log Aggro/Link™). The reaction mixture (500 μl) consisted of 300 μl of healthy donor PRP, HIT patient serum or purified Total HIT IgG (up to 14 μM, adjusted according to different donor platelets), heparin (0.5 IU/ml) and various concentrations of HRU5-HRU7. The degree of aggregation was determined by the increase in light transmittance. Platelet aggregation levels over 20% were considered positive.
With antibody/IC-induced platelet aggregation, time delay (time lapse) is a more sensitive measure of platelet aggregability compared with the extent of platelet aggregation as different antibodies invariably cause the same maximum extent of platelet aggregation after variable time delays or time lapses (as illustrated in FIG. 2B). Various concentrations of parental scFv, HRU5 or HRU6 were used. Plots were fitted to non-linear regression analysis (sigmoidal dose-response curves) (FIG. 2C). […] Here, the degree of inhibition of platelet aggregation was determined at various concentrations and analysed as shown in FIG. 2D.
Inhibition of platelet aggregation of HIT-antibody by HRU5 ˜3.5 mg/ml.

[2] = molecular target: T2, human Fc gamma receptor IIA (FcγRIIA); test: platelet-based fluorescent assay (flow cytometry), one-site specific binding fit
Protocol: (§1) Platelet-rich plasma (PRP) was obtained from whole blood after centrifugation at 200×g for 10 min. Washing/Suspension buffer (PBS, 0.5% BSA, 25 mM EDTA, pH 6.8) was used for platelet preparation throughout the experiment. 4 μl of PRP was incubated with various concentrations of fluorescently labelled HRU molecules for 30 min. Cells were washed once with 500 μl of buffer (PBS, 0.5% BSA, 25 mM EDTA, pH 6.8), suspended in 200 μl of PBS and analysed by flow cytometry (Cantoll, BD Biosciences).

thrombin = molecular target: T3, thrombin (Homo sapiens, UniProt P00734); test: Thrombin time assay in plasma; format: biochemical; details: undiluted plasma, increasing concentrations, in words
T3 construct: purchased Diagnostica STAGO S.A.A
Protocol: FIG. 3B is a graph of a Thrombin Time Delay assay for HRU6 and HRU7. Increasing concentrations of HRU molecules were incubated with undiluted plasma prepared from ACD anticoagulated blood. Clotting time of control plasma (untreated plasma) is shown corresponding to 0 concentration (closed circle). […] Clotting time is shown in sec.
The STA-Thrombin kit (Diagnostica STAGO S.A.A.) was used for the determination of the thrombin time by a haemostasis analyser. Plasma was prepared from ACD anticoagulated normal blood by centrifugation for 10 min at 2500×g. 500 μl of undiluted plasma, in the absence and presence of different inhibitor concentrations (e.g., HRU6 and HRU7), was analysed. Thrombin time of the plasma was determined by the analyser.
HRU6 and HRU7 also contain anti-thrombin activity provided by the lepirudin and bivalirudin moieties respectively. The Hemoclot thrombin inhibitor assay was used to determine the anti-clotting activity. The normal clotting time range is 15-24 sec.

platelets [3] = test: Serotonin release assay (platelet activation); format: cell-based, human; details: 0.1 IU/ml heparin; induced by KKO (FIG. 4) / HIT serum
Source text: FIG. 4 is a graph of the serotonin release assay. Serotonin release was induced by a HIT-like monoclonal antibody (KKO) and was inhibited by parental scFv, HRU5, HRU6 or HRU7. Heparin was used at therapeutic low concentrations (L, 0.1 U) and at inhibitory high concentration (H,100 U). Dotted lines denote 0% and 20% CPMA. Values over 20% are considered positive. CPMA, counts per minute.
SRA is the gold standard to confirm the presence of platelet-activating HIT antibodies. Platelets from a healthy donor were labelled with Hydroxytryptamine Binoxalate, 5-[2-^14C]-(Serotonin) (^14C-5HT) (1.5 μl/ml) and mixed with heparin (0.1 (low dose) or 100 IU/ml (high dose)) in the presence of HIT serum. The protein of interest was then added to the reaction and incubated at room temperature for 1 h. After centrifugation the supernatant was collected and the ^14C-serotonin released was measured in a scintillation counter. The percentage of ^14C-serotonin released was calculated by determining the proportion in the supernatant relative to the remaining ^14C-serotonin in platelets. A test result is defined as positive if more than 20% serotonin release is detected with a therapeutic heparin concentration of (0.1 IU/ml) but not with a high dose of heparin (100 IU/ml).

human platelets [4] = test: Platelet binding, flow cytometry (platelet-based fluorescent assay); details: for Kd: binding to human platelets, non-linear regression, one-site specific binding (FIG. 1D); for binding to human platelets: labelled scFvs, flow cytometry, in words
Protocol: FIG. 1D provides graphs of platelet-based fluorescent assay measurements with KD and R^2 values for the parental scFv, HRU5 and HRU6. Non-linear regression analysis (one-site specific binding) was used to determine KD and R^2 values. GMF, geometric mean fluorescence.
as §1

[5] = tested on: FcγRIIA/hPF4 double transgenic mice; test: Animal model of HIT (KKO plus heparin), lung thrombi by fluorescence; format: in vivo, mouse; details: 3.49×10^−11 moles per gram (~1 microgram/g)
Protocol: The mice used in these experiments were described in Reilly et al., “Heparin-induced thrombocytopenia/thrombosis in a transgenic mouse model requires human platelet factor 4 and platelet activation through FcγRIIA” Blood. 2001; 98(8):2442-2447. Animals were injected intravenously (iv) with HIT-like MoAb KKO. Heparin was injected intraperitoneally at 1 U/g following IgG injection. In some experiments, HRU molecules were also injected via the iv route. For in vivo platelet labelling anti-CD42c-Dylight649 (Emfret) was injected iv at 1 μg/g. Platelet counts were measured before treatment and at 1 h, 3 h and 5 h following treatment. Lungs were harvested 4 h after treatment, fixed in formalin and scanned for fluorescence in an IVIS Lumina Spectrum CT Spectrometer (PerkinElmer).
Mouse platelets were labeled in vivo with anti CD42c-Dylight649 antibody. The animals were treated with the HIT-like monoclonal antibody KKO plus heparin in the absence (vehicle) or presence of 3.49×10^−11 moles per gram (˜1 microgram/g) of parental scFv or HRU5. Fixed lungs from these mice were scanned with an IVIS Lumina Spectrum CT. There was clear accumulation of florescence in lungs treated with KKO plus vehicle, indicative of the presence of platelet rich thrombi. […] This finding is consistent with the findings of the in vitro experiments and microfluidics studies. […]

platelets [6] = test: Thrombin-induced platelet aggregation; format: cell-based, human; details: 0.3 U of thrombin
Source text: For thrombin induced platelet aggregation samples were mixed as described above in the presence of 0.3 U of thrombin.

[7] = molecular target: T2, human Fc gamma receptor IIA (FcγRIIA); test: cell-based or functional assay
[8] = tested on: FcγRIIa+/hPF4+ mouse lungs; test: Platelet accumulation in FcγRIIa+/hPF4+ mouse lungs (FIG. 8); format: in vivo
Source text: FIG. 8 is a graph of radiant efficiency showing the level of platelet accumulation in FcγRIIa+/hPF4+ mouse lungs.

| Molecule | Inhibition of platelet aggregation of HIT-antibody (human platelets [1]; serum from a HIT patient) | Kd [2] [nM] | thrombin clotting time (thrombin) | 14C-serotonin release (platelets [3]) | Kd (human platelets [4]) [nM] | binding to human platelets (human platelets [4]) | inhibition of thrombus accumulation in lungs [5] | inhibition of HIT serum induced aggregation (human platelets [1]) | EC50 (human platelets [1]) [nM] | other results |
| --- | --- | --- | --- | --- | --- | --- | --- | --- | --- | --- |
| WAWVWLTETAV [FcγRIIA binding peptide, reference compound] | 100 µM |  |  |  |  |  |  |  |  | Kd (FcγRIIA): 500 nM; IC50 (human platelets [1]): 55000 nM; capacity to inhibit HIT serum-induced aggregation (human platelets [1]; peptide alone, FIG. 10): low; IC50 of peptide versus EC50 of the parental scFv (human platelets [1]; printed as '3,000 times lower'): 3,000 times |
| HRU5 (scFv, AF488 (fluorescent) label in the flow cytometry binding assays; site not stated, also called HRU5 scFv; Peptide in the linker) scFv: EVQLVESGPELKKPGETVKISCKASGYTFTNYGMNWVKQAPGKGLKWMGWLNTYTGESIYPDDFKGRFAFSLETSASTAYLQINNLKSEDTATYFCARGDYGYDDPLDYWGQGTSVTVSSGGGGWAWVWLTETAVGGGGSDIVMTQAPPSVPVTPGESVSISCRSSKSLLHTNGNTYLHWFLQKPGQSPRLLIYRMSVLASGVPDRFSGSGSGTDFTLKISRVEAEDVGVYYCMQHLEYPLTFGAGTKLEIKRAHHHHHH |  | 282 |  |  |  |  |  |  |  |  |
| HRU5: Humanized variable heavy and variable light chains derived from the IV.3 MoAb linked with a GGGGWAWVWLTETAVGGGGS linker (protein) scFv: EVQLVESGPELKKPGETVKISCKASGYTFTNYGMNWVKQAPGKGLKWMGWLNTYTGESIYPDDFKGRFAFSLETSASTAYLQINNLKSEDTATYFCARGDYGYDDPLDYWGQGTSVTVSSGGGGWAWVWLTETAVGGGGSDIVMTQAPPSVPVTPGESVSISCRSSKSLLHTNGNTYLHWFLQKPGQSPRLLIYRMSVLASGVPDRFSGSGSGTDFTLKISRVEAEDVGVYYCMQHLEYPLTFGAGTKLEIKRAHHHHHH | ~3.5 mg/mL |  | did not influence clotting time; also recorded: does not prolong clotting time | inhibited | 298 | strong binding to platelets | inhibition of thrombus accumulation; also recorded: Clot inhibition was much greater in mice treated with HRU5 than with parental scFv | completely inhibited | 8.8 | activity relative to the parental scFv (EC50 and IC50) (human platelets [1]; HIT serum-induced platelet aggregation, in words): increase in activity; Inhibition of platelet aggregation of HIT-antibody (human platelets [1]; converted from mg/ml): ~0.09386 µM |
| HRU7: HRU5 linked to bivalirudin (an anticoagulant peptide) by a Ser2Gly12 linker (protein) scFv: EVQLVESGPELKKPGETVKISCKASGYTFTNYGMNWVKQAPGKGLKWMGWLNTYTGESIYPDDFKGRFAFSLETSASTAYLQINNLKSEDTATYFCARGDYGYDDPLDYWGQGTSVTVSSGGGGWAWVWLTETAVGGGGSDIVMTQAPPSVPVTPGESVSISCRSSKSLLHTNGNTYLHWFLQKPGQSPRLLIYRMSVLASGVPDRFSGSGSGTDFTLKISRVEAEDVGVYYCMQHLEYPLTFGAGTKLEIKRAGGGGSGGGGSGGGGFPRPGGGGNGDFEEIPEEYLHHHHHH |  |  | significant increases in thrombin clotting time; also recorded: prolong clotting time in a dose-dependent manner | inhibited |  | stronger binding to human platelets than expected |  |  |  | inhibition of thrombin-induced platelet aggregation (platelets [6]): inhibit thrombin-induced platelet aggregation in a dose dependent manner |
| Humanized scFv (parental scFv) derived from the IV.3 monoclonal antibody (scFv, AF488 (fluorescent) label in the flow cytometry binding assays; site not stated, Arranged VH-linker-VL; also called HRU4) scFv: EVQLVESGPELKKPGETVKISCKASGYTFTNYGMNWVKQAPGKGLKWMGWLNTYTGESIYPDDFKGRFAFSLETSASTAYLQINNLKSEDTATYFCARGDYGYDDPLDYWGQGTSVTVSSGGGGSGGGGSGGGGSDIVMTQAPPSVPVTPGESVSISCRSSKSLLHTNGNTYLHWFLQKPGQSPRLLIYRMSVLASGVPDRFSGSGSGTDFTLKISRVEAEDVGVYYCMQHLEYPLTFGAGTKLEIKRAHHHHHH |  | 298 |  |  |  |  |  |  |  | EC50 (platelet aggregation induced by HIT serum) [7]: 18 nM |
| parental scFv: Humanized scFv derived from anti-FcγRIIA IV.3 monoclonal antibody, VH and VL joined by flexible GGGGS linker (protein) scFv: EVQLVESGPELKKPGETVKISCKASGYTFTNYGMNWVKQAPGKGLKWMGWLNTYTGESIYPDDFKGRFAFSLETSASTAYLQINNLKSEDTATYFCARGDYGYDDPLDYWGQGTSVTVSSGGGGSGGGGSGGGGSDIVMTQAPPSVPVTPGESVSISCRSSKSLLHTNGNTYLHWFLQKPGQSPRLLIYRMSVLASGVPDRFSGSGSGTDFTLKISRVEAEDVGVYYCMQHLEYPLTFGAGTKLEIKRAHHHHHH |  |  |  | inhibited | 282 |  | inhibition of thrombus accumulation | completely inhibited | 55000 | inhibition of thrombosis (platelet accumulation in lungs, radiant efficiency) [8]: strong inhibition of thrombosis |
